Positions count from the first letter of the chain named.
Legend:
Details in all cases: protein: recombinant, tags: N-terminal His6 (pHIS-parallel1), label: 3' fluorescein (5-thiosemicarbazide)
[1] = biological target: T1, dNELF-E (Drosophila, UniProt P92204 1-280); assay: F-EMSA; 10 mM HEPES-NaOH pH 7.5, 100 mM NaCl, 25 mM KCl, 1 mM MgCl2, 0.02% Tween-20, 0.01% IGEPAL CA-630, 10 µg/ml yeast tRNA; 2 nM RNA, 0-2000 nM protein, 1-2 h, binding temperature not stated; gel 5% acrylamide 0.5X TBE at 4 °C
T1 sequence: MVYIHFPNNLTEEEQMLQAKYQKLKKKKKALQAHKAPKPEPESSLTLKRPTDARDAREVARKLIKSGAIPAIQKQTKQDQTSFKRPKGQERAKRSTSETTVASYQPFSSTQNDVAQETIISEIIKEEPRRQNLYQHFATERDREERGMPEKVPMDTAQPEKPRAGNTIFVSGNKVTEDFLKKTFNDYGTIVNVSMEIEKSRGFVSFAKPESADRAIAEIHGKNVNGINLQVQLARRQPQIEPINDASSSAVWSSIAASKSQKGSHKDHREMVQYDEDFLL

[2] = biological target: T2, hNELF-E (human, UniProt P18615 1-380); assay: as above
T2 sequence (P18615 whole entry): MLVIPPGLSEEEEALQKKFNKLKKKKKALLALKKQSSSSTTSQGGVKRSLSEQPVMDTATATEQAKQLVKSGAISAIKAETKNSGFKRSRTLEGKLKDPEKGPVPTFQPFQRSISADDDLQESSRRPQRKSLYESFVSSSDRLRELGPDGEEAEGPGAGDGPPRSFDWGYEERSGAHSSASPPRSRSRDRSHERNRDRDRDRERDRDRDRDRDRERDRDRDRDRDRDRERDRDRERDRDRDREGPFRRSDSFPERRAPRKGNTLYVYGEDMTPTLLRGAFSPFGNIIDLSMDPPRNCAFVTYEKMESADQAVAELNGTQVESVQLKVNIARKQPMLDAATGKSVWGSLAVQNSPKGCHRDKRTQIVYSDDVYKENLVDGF

[3] = biological target: T1, dNELF-E; assay: fluorescence polarization; 10 mM HEPES-NaOH pH 7.5, 100 mM NaCl, 25 mM KCl, 1 mM MgCl2, 0.02% Tween-20, 0.01% IGEPAL CA-630, 10 µg/ml yeast tRNA; 2 nM RNA, 0-2000 nM protein, 1-2 h, binding temperature not stated; gel 5% acrylamide 0.5X TBE at 4 °C
[4] = biological target: T2, hNELF-E; assay: as above
[5] = no predicted secondary structure

B1: HIV-1 TAR+A (structured_RNA)
RNA: GGUCUCUCUGGUUAGACCAGAUCUGAGCCUGAGGAGCUCUCUGGCUAACUAGGGAACC
Kd ([1]; hairpin with UCU bulge): 59 ± 2 nM | Kd ([2]; hairpin with UCU bulge): 250 ± 20 nM | Kd ([3]; hairpin with UCU bulge): 82 ± 1 nM | Kd ([4]; hairpin with UCU bulge): 250 ± 20 nM

B2: Napt1+hairpin (structured_RNA)
RNA: GGCCCCACUGAGGAUGCCCACGGGCGUCCUCAGUGGGGCCA
Kd ([1]; hairpin, NBE base-paired): 810 ± 50 nM | Kd ([3]; hairpin, NBE base-paired): 470 ± 170 nM

B3: HIV-1 TAR (structured_RNA)
RNA: GGUCUCUCUGGUUAGACCAGAUCUGAGCCUGGGAGCUCUCUGGCUAACUAGGGAACC
Kd ([1]; hairpin with UCU bulge): 350 ± 35 nM | Kd ([2]; hairpin with UCU bulge): 300 ± 20 nM | Kd ([3]; hairpin with UCU bulge): 130 ± 10 nM | Kd ([4]; hairpin with UCU bulge): 200 ± 10 nM

B4: Napt1min (structured_RNA)
RNA: GGCCCCACUGAGGAUGCCCACGGGCGAUUGGGGCCA
Kd ([1]; putative K-turn stem-loop): 44 ± 22 nM | Kd ([2]; putative K-turn stem-loop): 420 ± 90 nM | Kd ([3]; putative K-turn stem-loop): 21 ± 7 nM | Kd ([4]; putative K-turn stem-loop): 140 ± 10 nM

B5: Napt1NBEmut (structured_RNA)
RNA: B4 RNA with C8U, U9C, G10A, G12A
Kd ([1]; predicted structure kept as in Napt1min): 880 ± 170 nM

B6: Napt25min (structured_RNA)
RNA: GGUCUCCAACUGAGGAUACCGCUCGAGGAAGCGAGUGGCGAUUUGGAGACCU
Kd ([1]; putative K-turn stem-loop): 53 ± 9 nM | Kd ([3]; putative K-turn stem-loop): 30 ± 2 nM

B7: Napt1-Δstem (ssRNA)
RNA: GGGGACUGAGGAGCAACACGGGCGAUUGGGGCCA
Kd [1, 5]: 205 ± 20 nM | Kd [3, 5]: 270 ± 130 nM

— article PMC3894171, “Defining NELF-E RNA Binding in HIV-1 and Promoter-Proximal Pause Regions”
